Reference: patent US10167314 (NORTHWESTERN UNIVERSITY, dated 2019)
Ends that are not written are not given here.

Target: N-methyl-D-aspartate (NMDA) receptor (rat)
Assay: cell-based or functional assay

B1: GLYX-13 (L-threonyl-L-prolyl-L-prolyl-L-threonine amide) (peptide)
peptide: TPPT-NH2
intrinsic activity relative to D-serine, pharmacologically isolated NMDA receptor current in the hippocampal slice assay: 23%
